Measured values taken from article PMC8943206 (2022).

Molecular target: T1, cGAS-His (human, UniProt Q8N884 1-522)
T1 chain: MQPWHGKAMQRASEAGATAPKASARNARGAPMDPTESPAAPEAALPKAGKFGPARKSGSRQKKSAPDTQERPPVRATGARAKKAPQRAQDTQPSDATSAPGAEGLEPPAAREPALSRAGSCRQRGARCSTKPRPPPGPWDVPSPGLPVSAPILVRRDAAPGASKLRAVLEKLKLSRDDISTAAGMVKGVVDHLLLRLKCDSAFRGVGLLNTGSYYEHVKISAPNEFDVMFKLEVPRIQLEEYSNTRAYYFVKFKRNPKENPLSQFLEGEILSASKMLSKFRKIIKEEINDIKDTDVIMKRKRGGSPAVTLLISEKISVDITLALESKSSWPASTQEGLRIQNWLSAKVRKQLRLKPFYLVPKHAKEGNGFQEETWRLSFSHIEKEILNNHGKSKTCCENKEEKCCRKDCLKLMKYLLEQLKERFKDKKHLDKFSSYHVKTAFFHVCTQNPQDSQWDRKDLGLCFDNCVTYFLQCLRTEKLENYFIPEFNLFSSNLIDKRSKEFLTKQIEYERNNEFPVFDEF
Assay: SPR

B1: GST-PCBP2 (natural protein)
chain: MDTGVIEGGLNVTLTIRLLMHGKEVGSIIGKKGESVKKMREESGARINISEGNCPERIITLAGPTNAIFKAFAMIIDKLEEDISSSMTNSTAASRPPVTLRLVVPASQCGSLIGKGGCKIKEIRESTGAQVQVAGDMLPNSTERAITIAGIPQSIIECVKQICVVMLETLSQSPPKGVTIPYRPKPSSSPVIFAGGQDRYSTGSDSASFPHTTPSMCLNPDLEGPPLEAYTIQGQYAIPQPDLTKLHQLAMQQSHFPMTHGNTGFSGIESSSPEVKGYWGLDASAQTTSHELTIPNDLIGCIIGRQGAKINEIRQMSGAQIKIANPVEGSTDRQVTITGSAASISLAQYLINVRLSSETGGMGSS
Binder B1 has a Kd of 470 nM.
